# Assay results taken from patent publication US20240058275A1, “NANO-SILICA - IN YEAST PARTICLE (YP) DRUG ENCAPSULATION APPROACH FOR IMPROVED THERMAL AND HYDROLASE STABILITY OF YP DRUG DELIVERY FORMULATIONS” (UNIVERSITY OF MASSACHUSETTS, priority 2022, published 2024).
# B1: Ovalbumin: ovalbumin protein payload (protein, UniProt P01012 2-386, looked up)
# Ovalbumin: GSIGAASMEFCFDVFKELKVHHANENIFYCPIAIMSALAMVYLGAKDSTRTQINKVVRFDKLPGFGDSIEAQCGTSVNVHSSLRDILNQITKPNDVYSFSLASRLYAEERYPILPEYLQCVKELYRGGLEPINFQTAADQARELINSWVESQTNGIIRNVLQPSSVDSQTAMVLVNAIVFKGLWEKAFKDEDTQAMPFRVTEQESKPVQMMYQIGLFRVASMASEKMKILELPFASGTMSMLVLLPDEVSGLEQLESIINFEKLTEWTSSNVMEERKIKVYLPRMKMEEKYNLTSVLMAMGITDVFSSSANLSGISSAESLKISQAVHAAHAEINEAGREVVGSAEAGVDAASVSEEFRADHPFLFCIKHIATNAVLFFGRCVSP
# Assays:
# [1] = Encapsulation efficiency of proteins ensilicated in GPs with 100% TEOS; type: physicochemical; conditions: 100% TEOS prepolymerized at pH 2, SDS-PAGE
# Protocol: Dry GPs were mixed with a solution of 25 mg/mL protein in water (4 μL protein solution per mg GP, 100 μg protein per mg GP), incubated to allow for complete absorption of protein solution inside the hollow cavity of GPs, and then the samples were frozen and lyophilized. To maximize protein incorporation into GPs, the dry GP-OVA samples were hydrated with 2 μL water per mg GP, mixed, frozen, and lyophilized. TEOS (Millipore Sigma, Burlington, MA, USA; #86578, ≥99% purity, density 0.933 g/mL) was mixed with a 0.01 M HCl (pH 2) solution at a volume ratio of 2:1 (v/v) aqueous HCl:TEOS and the sample was incubated at 20° C. with constant mixing for one hour to allow for partial polymerization of TEOS. Then, the partially polymerized single phase TEOS solution was added to dry GP-protein (4 μL per mg GP) and the sample was incubated for one hour. GP ensilicated protein samples were suspended in 0.9% sterile saline (5 mg GP/mL), centrifuged and the supernatants were collected to quantify unencapsulated protein. The samples were then washed three more times in 0.9% sterile saline, suspended in 0.9% saline at 5 mg GP/mL and stored at 20° C.
# GP ensilicated protein was extracted and quantified by following the procedure described above for BSA. Proteins in the GP supernatants and pellets were quantified by SDS-PAGE.
# [2] = Ensilication (trapping) efficiency of BSA within GPs, quantified by SDS-PAGE; type: physicochemical; conditions: TEOS pre-polymerized at pH 2, TEOS:rBSA ratios of 1.3 to 24.9
# Protocol: The efficiency of ensilication of BSA within GPs was tested. […] The samples were mixed, incubated at room temperature for 30 minutes, frozen and lyophilized to remove solvent. The loading cycle was repeated by adding 10 μL of water to the dry fGP rBSA sample to draw payload within the matrix of the GP shell into the hollow GP cavity, the sample was mixed and lyophilized to remove solvent.
# TEOS was mixed with 0.01 M HCl solution (pH 2). The mixture was mixed for 1 hour to achieve TEOS prepolymerization and formation of a single aqueous phase in which the TEOS was close to its gel point. Solutions with different ratios of TEOS and 0.01 M HCl were prepared to target TEOS:rBSA weight ratios from 0 to 24.9. […]
# The ensilicated fGP-rBSA samples were washed three times with 0.9% saline. The ensilicated fGP rBSA pellets were evaluated by microscopy to assess efficient trapping of rBSA within the cavity of fGPs, and percent protein encapsulation was quantified by SDS-PAGE. […]
# Acid catalyzed TEOS forms long, linear polymers that easily entangle and gel. […] The percent of BSA trapped in GPs was measured as described above.
# GPs containing ensilicated fBSA were also prepared as described before at the optimal TEOS polymerization conditions with 0.01 M HCl (pH 2) for use as control. Percent of BSA trapped in GPs was measured as described above.
Molecule,% encapsulation efficiency in GPs [1],percent of rBSA trapped in fGPs [2]
Transferrin: transferrin protein payload,92 ± 8%,
rBSA: rhodamine labeled BSA payload,,> 80%
B1,97 ± 3%,
